Measurements as given in patent US20240368286A1 (SHANGHAI JMT BIO TECHNOLOGY, published 2024).
Read-outs that look alike come from different tables or passages of the source.

Columns and labels:
[1] = target: T1, Human GFRAL protein (Biacore analyte) (human, UniProt Q6UXV0 19-351, limits assumed); assay: Biacore SPR, antibody captured via anti-human Fc on CM5, GFRAL injected, 25 C
T1 construct: also called hGFRAL
T1 sequence (looked up): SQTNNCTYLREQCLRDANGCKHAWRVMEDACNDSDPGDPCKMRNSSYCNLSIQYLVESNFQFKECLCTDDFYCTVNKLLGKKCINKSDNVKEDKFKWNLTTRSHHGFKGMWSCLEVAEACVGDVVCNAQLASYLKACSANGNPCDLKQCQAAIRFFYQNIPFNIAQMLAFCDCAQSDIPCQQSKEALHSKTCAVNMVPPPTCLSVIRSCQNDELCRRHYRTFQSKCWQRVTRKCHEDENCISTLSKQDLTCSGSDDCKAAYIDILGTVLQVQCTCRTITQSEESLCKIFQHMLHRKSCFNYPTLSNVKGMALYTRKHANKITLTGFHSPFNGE
Description: Binding affinity assays were performed for three antibody strains 168A7, 8E10 and 26D7 based on the Biacore affinity assay. The binding affinities of purified antibodies to human or mouse GFRAL were assessed by measuring the equilibrium dissociation constants (KD). The anti-human Fc antibody was immobilized in the flow cell of the CM5 chip according to the instructions of the amino-coupled kit (catalogue number: BR100050, Cytiva). Purified antibodies (˜300 RU) were captured on flow cells 2, 3 and 4 using flow cell 1 as a reference. Human or mouse GFRAL protein (in an HBS-EP buffer) was then injected at a flow rate of 30 μL/min and the binding kinetics were evaluated at 25° C. The results were as follows (FIGS. 1A-1C, Table 4)

Human GFRAL-His protein = target: T2, Human GFRAL-His protein (human, UniProt Q6UXV0 19-351); assay: ELISA, antigen coated on plate, purified antibody titrated, HRP anti-mouse IgG detection
T2 construct: also called human GFRAL-His fusion protein; not shown: His tag
T2 sequence (looked up): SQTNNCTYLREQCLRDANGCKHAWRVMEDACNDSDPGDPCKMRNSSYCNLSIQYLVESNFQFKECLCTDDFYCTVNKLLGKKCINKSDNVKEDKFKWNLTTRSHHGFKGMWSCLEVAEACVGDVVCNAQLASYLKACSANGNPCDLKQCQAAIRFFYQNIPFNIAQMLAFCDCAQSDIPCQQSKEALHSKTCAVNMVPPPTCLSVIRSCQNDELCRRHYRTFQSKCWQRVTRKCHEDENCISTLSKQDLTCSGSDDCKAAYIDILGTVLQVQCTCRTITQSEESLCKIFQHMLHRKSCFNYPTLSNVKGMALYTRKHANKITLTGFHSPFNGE
Description: (§1) The ELISA assay had the following protocols. Human GFRAL-His protein, cynomolgus monkey GFRAL-His protein, or mouse GFRAL-Fc protein were coated on 96-well plates, and after blocking the wells with PBS/1% BSA solution, the hybridoma supernatant or purified antibodies were added to the reaction wells. After incubation for 1 hour at room temperature, HRP-labeled anti-mouse IgG (Fab region) antibody was added to the reaction wells to incubate for an additional hour at room temperature. After the substrate and stop solution were added successively, the OD₄₅₀ values were read. The OD₄₅₀ values were used to verify and assess the binding ability of the antibodies to the GFRAL proteins.

[2] = target: Cynomolgus monkey GFRAL-His protein (cynomolgus monkey); assay: as above
Description: as §1

[3] = target: T3, Human GFRAL (hGFRAL) on HEK293 reporter cells with human RET (human, UniProt Q6UXV0 19-394); assay: cell-based or functional assay
T3 sequence (looked up): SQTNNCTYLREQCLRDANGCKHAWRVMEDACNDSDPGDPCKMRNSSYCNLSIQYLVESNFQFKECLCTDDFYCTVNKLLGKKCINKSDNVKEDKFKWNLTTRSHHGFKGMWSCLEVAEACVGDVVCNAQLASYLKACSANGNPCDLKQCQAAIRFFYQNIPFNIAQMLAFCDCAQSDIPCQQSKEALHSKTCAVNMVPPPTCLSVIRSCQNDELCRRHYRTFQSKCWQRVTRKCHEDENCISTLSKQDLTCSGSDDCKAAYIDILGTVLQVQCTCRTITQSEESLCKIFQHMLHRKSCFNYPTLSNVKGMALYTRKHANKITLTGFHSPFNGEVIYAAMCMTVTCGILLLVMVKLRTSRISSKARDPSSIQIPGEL

[4] = target: T4, Mouse GFRAL (mGFRAL) on HEK293 reporter cells with mouse RET (mouse, UniProt Q6SJE0 20-393); assay: cell-based or functional assay
T4 sequence (looked up): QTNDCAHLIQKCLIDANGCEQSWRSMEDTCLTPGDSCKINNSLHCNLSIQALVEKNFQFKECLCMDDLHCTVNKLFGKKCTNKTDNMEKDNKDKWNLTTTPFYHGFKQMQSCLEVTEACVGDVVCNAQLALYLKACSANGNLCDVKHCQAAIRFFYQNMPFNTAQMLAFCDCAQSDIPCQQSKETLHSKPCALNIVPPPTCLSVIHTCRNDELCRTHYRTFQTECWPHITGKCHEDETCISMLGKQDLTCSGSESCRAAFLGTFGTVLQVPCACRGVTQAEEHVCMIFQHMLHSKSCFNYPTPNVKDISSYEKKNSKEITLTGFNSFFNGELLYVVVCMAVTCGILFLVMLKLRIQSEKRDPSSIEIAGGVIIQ

Mouse GFRAL-Fc protein = target: T5, Mouse GFRAL-Fc protein (mouse, UniProt Q6SJE0 20-349, limits assumed); assay: ELISA, antigen coated on plate, purified antibody titrated, HRP anti-mouse IgG detection
T5 construct: not shown: Fc
T5 sequence (looked up): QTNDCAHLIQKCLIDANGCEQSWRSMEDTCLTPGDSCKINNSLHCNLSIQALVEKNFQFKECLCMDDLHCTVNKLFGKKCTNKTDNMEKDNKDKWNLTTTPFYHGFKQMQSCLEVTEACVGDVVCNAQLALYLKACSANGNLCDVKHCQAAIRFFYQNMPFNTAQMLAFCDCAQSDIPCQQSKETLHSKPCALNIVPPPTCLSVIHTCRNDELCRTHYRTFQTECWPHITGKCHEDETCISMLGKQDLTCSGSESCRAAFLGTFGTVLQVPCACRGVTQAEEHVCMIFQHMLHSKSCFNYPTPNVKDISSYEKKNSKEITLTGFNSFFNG
Description: as §1

[5] = target: T3, Human GFRAL (hGFRAL) on HEK293 reporter …; assay: cell-based or functional assay; remark: listed apart in the source
[6] = target: T4, Mouse GFRAL (mGFRAL) on HEK293 reporter …; assay: cell-based or functional assay; remark: listed apart in the source
[7] = target: Cynomolgus monkey GFRAL protein (Biacore analyte) (cynomolgus monkey); assay: Biacore SPR, humanized antibody captured via murine anti-human Fc on CM5, GFRAL injected in 2-fold dilutions, 25 C
Description: (§2) Specific protocols are as follows.
(§3) The surface of the CM5 chip was activated using 400 mM EDC and 100 mM NHS at a flow rate of 10 μl/min according to the instructions for the amino-coupled kit (Cat. No. BR100050, Cytiva). Then, the murine anti-human Fc antibody was immobilized in the test channel (Fc2) and the reference channel (Fc1) of the CM5 chip. Finally, the chip was blocked with 1 M ethanolamine at a flow rate of 10 μl/min; The humanized antibody (˜300 RU) diluted to 5 μg/ml was then captured on the assay channel (Fc2), and ligand capture were not carried out on the reference channel. Human, mouse or cynomolgus monkey GFRAL proteins (in a HBS-EP buffer) with 2-fold doubling dilutions was subsequently injected at a flow rate of 30 μL/min and the binding kinetics were evaluated at 25° C. The results are as follows (see Table 12)

[8] = target: T1, Human GFRAL protein (Biacore analyte); assay: as above
Description: as §2, §3

[9] = target: T6, Mouse GFRAL protein (Biacore analyte) (mouse, UniProt Q6SJE0 20-349, limits assumed); assay: as above
T6 construct: also called mGFRAL
T6 sequence (looked up): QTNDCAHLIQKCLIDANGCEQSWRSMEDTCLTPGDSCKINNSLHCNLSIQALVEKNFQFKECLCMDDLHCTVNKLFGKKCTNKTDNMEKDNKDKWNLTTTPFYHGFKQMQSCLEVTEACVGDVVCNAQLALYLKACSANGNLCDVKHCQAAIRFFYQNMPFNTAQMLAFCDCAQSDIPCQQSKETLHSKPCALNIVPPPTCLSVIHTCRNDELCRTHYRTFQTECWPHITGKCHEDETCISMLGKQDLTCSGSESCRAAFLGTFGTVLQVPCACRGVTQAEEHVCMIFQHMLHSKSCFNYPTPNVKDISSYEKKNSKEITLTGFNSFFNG
Description: as §2, §3

Binder	Kd [1] [nM]	koff [1] [s⁻¹]	EC50 (Human GFRAL-His protein) [nM]	EC50 [2] [nM]	IC50 (nM), luciferase reporter gene assay, Human GFRAL/human RET [3] [nM]	IC50 (nM), luciferase reporter gene assay, Mouse GFRAL/mouse RET [4] [nM]	EC50 (Mouse GFRAL-Fc protein) [nM]	IC50 (nM), luciferase reporter gene assay, Human GFRAL/human RET [5] [nM]	IC50 (nM), luciferase reporter gene assay, Mouse GFRAL/mouse RET [6] [nM]	Kd [7] [nM]	koff [7] [s⁻¹]	Kd [8] [nM]	koff [8] [s⁻¹]	koff [9] [s⁻¹]
168A7 (antibody, V domains shown, Murine hybridoma antibody, purified) VH: QVTLKESGPGILKPSQTLSLTCSFSGFSLSTSDMGVGWIRQPSGKGLEWLAHIWWDDDKYYNPSLKRQLTISKDNSRNQVFLKISSVDTTDTATYYCARLYDYDDEYYFDYWGQGTTLTVSS VL: DIQMTQTKSSLSASLGDRVTISCRASQDSNNYLNWYQQKPDGTVKLLIYYTSRLHSGVPSRFSGSGSGTDYSLTISNLEHEDIATYFCQQGNTIPWTFGGGTKLEIK	0.00145	7.06e-05	1.87	0.09	3.29	> 694								
165C5 (antibody, V domains shown, Murine hybridoma antibody, purified) VH: EVKLVESGGGLVKPGGSLKLSCAASGFTFSSYAMSWVRQTPEKRLEWVASITTGGSTYYLDSVRGRFTISRDNARNILSLQMSSLRSEDTAIYYCARSLIITATGFDYWGQGTTLTVSS VL: DIVMTQSQKFMSISVGDRVNITCRASQDVGTAVAWYQQKPGQSPKLLIYSASNRYTGVPNRFTGSGSGTDFTLAISNMQSEDLADYFCQQYSIYYTFGGGTKLEIK			0.27	0.03	55.5	7.22	0.12							
2D4 (antibody, V domains shown, Murine hybridoma antibody, purified) VH: EVNLVESGGGLVKPGGPLKLSCAASGFTFSSFVMSWVRQTPEKRLEWVASITSGGTTFYPDSVKGRFTISRDNARNILYLQMSNLRSGDTAMYYCARGPPQFSSLSMDYWGQGTSVTVSS VL: DIVMTQSQKFMSTSVGDRITITCKASQNVGTAVSWFQQKPGQVPKLLIYSASNRYTGVPDRFTGSGSGTEFTLTISNIQSEDLADYFCQQYSSLFTFGSGTKLEIK			0.09	0.1	11.6	2.23	0.08							
8E10 (antibody, V domains shown, Murine hybridoma antibody, purified) VH: QVQLQQSGSELVRPGSSVKISCRASGYTFSNYWMNWVKQRPGQGLEWIGQIYPGDDDADYNGKFQGKATLTADKSSSTAYMQLNTLTSEDSAVYFCTRSGRRDFDYWGQGTTLTVSS VL: NIVLTQSPASLAVSLGQRATISCRASESIDNYGNSFMHWYQQKPGQPPKLLIYRASNLESGVPARFSGSGSRTDFTLTIDPVEADDAATYYCQQNNEDPYTFGGGTKLEIK	0.0179	0.000404	0.05	0.06	3.33	> 694								
174D6 (antibody, V domains shown, Murine hybridoma antibody, purified) VH: QVQLKQSGPGLVQPSQSLSITCTVSGFSLTSYGVHWVRQSPGKGLEWLGVIWSGGRTDYNAAFISRLNISKDSSKSQVFFKMNSLQADDTAIYYCARKGSSYYGLYYYGMDFWGQGTSVTVSS VL: not shown			0.28	0.07	104	> 694	0.14							
174E10 (antibody, V domains shown, Murine hybridoma antibody, purified) VH: QVQLKQSGPGLVQPSQSLSITCTVSGFSLTSYGVHWVRQSPGKGLEWLGVIWSGGRIDYNAAFISRLSISKDNSKSQVFFKMNSLQADDTAIYYCARKGSSYYGLYYYGMDYWGQGTSVTVSS VL: DIVMTQSPSSLTVTAGEKVTMSCKSSQSLLNSGNQKNYLTWYQQKSGQTPKLLIYWASTRESGVPDRFTGSGSGTDFTLTISSVQAEDLAVYYCQNDYGYPLTFGAGTKLELK			0.18	0.06	37.2	105	0.12							
26D7H3aL2c (antibody, V domains shown, Humanized; also called humanized anti-GFRAL antibody 26D7H3aL2c) VH: QVQLVQSGAEVKKPGASVKISCKVSGYTFTDYGMNWVRQTPGQGLKWVGWINTYTGEPTYADDFKDRFTFTLDASTSTAYMELRSLRSDDTAVYFCARRYGYDAGIDAWGQGTLVTVSS VL: EIVLTQSPGTLSLSPGERATLSCRASESVESYGNNLMHWYQQKPGQAPRLLIYLASYLESGVPDRFSGSGSGTDFTLTISRLEPEDFATYYCQQNNESPWTFGQGTKVEIK								8.3	1.9	0.131	0.000193	0.0465	0.000125	0.000215
